Legend:
[1] = target: T1, FZD2 cysteine-rich domain (CRD), MYC-tagged and GPI-anchored on CHO cells (human, UniProt Q14332 35-161); assay: immunofluorescence, CHO-CRD cells
[2] = target: T2, FZD3 cysteine-rich domain (CRD), MYC-tagged and GPI-anchored on CHO cells (human, UniProt Q9NPG1 24-150, GPI anchor); assay: immunofluorescence, CHO-CRD cells
T2 construct: domain: cysteine-rich domain (CRD); also called FZD3 CRD; CHO-myc-FZDGPI; not shown: MYC tag and GPI anchor signal
T2 sequence (looked up): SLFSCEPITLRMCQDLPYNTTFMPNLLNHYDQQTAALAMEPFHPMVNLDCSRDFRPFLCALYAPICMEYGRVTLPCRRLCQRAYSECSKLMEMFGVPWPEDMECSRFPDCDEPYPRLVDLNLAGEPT

[3] = target: T3, FZD9 cysteine-rich domain (CRD), MYC-tagged and GPI-anchored on CHO cells (human, UniProt O00144 35-161, GPI anchor); assay: immunofluorescence, CHO-CRD cells
T3 construct: also called FZD9 CRD; CHO-myc-FZDGPI; not shown: MYC tag and GPI anchor signal
T3 sequence: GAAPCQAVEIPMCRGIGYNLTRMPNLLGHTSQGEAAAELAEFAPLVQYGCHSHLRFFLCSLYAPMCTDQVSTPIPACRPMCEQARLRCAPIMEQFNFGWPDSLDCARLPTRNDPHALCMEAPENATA

[4] = target: T4, FZD6 cysteine-rich domain (CRD), MYC-tagged and GPI-anchored on CHO cells (human, UniProt O60353 20-146, GPI anchor); assay: immunofluorescence, CHO-CRD cells
T4 construct: also called FZD6 CRD; CHO-myc-FZDGPI; not shown: MYC tag and GPI anchor signal
T4 sequence: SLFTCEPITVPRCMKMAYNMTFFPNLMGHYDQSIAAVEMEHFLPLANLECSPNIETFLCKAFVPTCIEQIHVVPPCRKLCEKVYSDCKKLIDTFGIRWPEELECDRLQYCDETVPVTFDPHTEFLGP

[5] = target: T5, FZD4 cysteine-rich domain (CRD), MYC-tagged and GPI-anchored on CHO cells (human, UniProt Q9ULV1 42-167, GPI anchor); assay: immunofluorescence, CHO-CRD cells
T5 construct: also called FZD4 CRD; CHO-myc-FZDGPI; not shown: MYC tag and GPI anchor signal
T5 sequence: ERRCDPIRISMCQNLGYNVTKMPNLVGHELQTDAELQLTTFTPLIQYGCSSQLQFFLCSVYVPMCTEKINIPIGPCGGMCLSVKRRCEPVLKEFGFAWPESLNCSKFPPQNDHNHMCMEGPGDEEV

[6] = target: T6, FZD10 cysteine-rich domain (CRD), MYC-tagged and GPI-anchored on CHO cells (human, UniProt Q9ULW2 30-156, GPI anchor); assay: immunofluorescence, CHO-CRD cells
T6 construct: also called FZD10 CRD; CHO-myc-FZDGPI; not shown: MYC tag and GPI anchor signal
T6 sequence: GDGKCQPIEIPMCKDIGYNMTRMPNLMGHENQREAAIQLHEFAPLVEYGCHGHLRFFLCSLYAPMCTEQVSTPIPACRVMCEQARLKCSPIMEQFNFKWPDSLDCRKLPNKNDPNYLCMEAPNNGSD

[7] = target: T1, FZD2 cysteine-rich domain (CRD), …; assay: flow cytometry, CHO-CRD cells;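 note: flow cytometry of Fab binding to CHO cells overexpressing a Frizzled CRD, with binding defined as median fluorescence over twice that of CHO cells lacking any Frizzled CRD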
[8] = target: T2, FZD3 cysteine-rich domain (CRD), …; assay: flow cytometry, CHO-CRD cells;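 note: flow cytometry of Fab binding to CHO cells overexpressing a Frizzled CRD, with binding defined as median fluorescence over twice that of CHO cells lacking any Frizzled CRD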
[9] = target: T3, FZD9 cysteine-rich domain (CRD), …; assay: flow cytometry, CHO-CRD cells;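 note: flow cytometry of Fab binding to CHO cells overexpressing a Frizzled CRD, with binding defined as median fluorescence over twice that of CHO cells lacking any Frizzled CRD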
[10] = target: T4, FZD6 cysteine-rich domain (CRD), …; assay: flow cytometry, CHO-CRD cells;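 note: flow cytometry of Fab binding to CHO cells overexpressing a Frizzled CRD, with binding defined as median fluorescence over twice that of CHO cells lacking any Frizzled CRD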
[11] = target: T5, FZD4 cysteine-rich domain (CRD), …; assay: flow cytometry, CHO-CRD cells
[12] = target: FZD7 cysteine-rich domain (CRD), MYC-tagged and GPI-anchored on CHO cells (human, UniProt O75084 45-169); assay: flow cytometry, CHO-CRD cells
[13] = target: T6, FZD10 cysteine-rich domain (CRD), …; assay: flow cytometry, CHO-CRD cells
[14] = target: T7, FZD5 cysteine-rich domain (CRD), MYC-tagged and GPI-anchored on CHO cells (human, UniProt Q13467 29-156, GPI anchor); assay: flow cytometry, CHO-CRD cells
T7 construct: also called FZD5 CRD; CHO-myc-FZDGPI; not shown: MYC tag and GPI anchor signal
T7 sequence: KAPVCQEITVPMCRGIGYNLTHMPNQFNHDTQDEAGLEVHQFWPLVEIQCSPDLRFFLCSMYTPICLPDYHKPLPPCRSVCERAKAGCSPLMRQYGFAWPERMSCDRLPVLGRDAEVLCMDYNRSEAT

[15] = target: T8, FZD8 cysteine-rich domain (CRD), MYC-tagged and GPI-anchored on CHO cells (human, UniProt Q498S8 31-155 (rat entry), GPI anchor); assay: flow cytometry, CHO-CRD cells
T8 construct: also called FZD8 CRD; CHO-myc-FZDGPI; not shown: MYC tag and GPI anchor signal
T8 sequence: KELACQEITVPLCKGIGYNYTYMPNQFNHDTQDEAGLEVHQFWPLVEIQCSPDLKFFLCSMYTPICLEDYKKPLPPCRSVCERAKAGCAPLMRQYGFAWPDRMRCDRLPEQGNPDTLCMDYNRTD

[16] = target: T9, recombinant human FZD5-Fc chimera (R&D Systems, Catalog no. 1617-FZ) (human, UniProt Q13467 27-167); assay: SPR, Frizzled-Fc chimera;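 note: binding targets are Fc fusions carrying an extracellular Frizzled fragment that contains the CRD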
T9 construct: used for selection and ELISA; Fc part of the bought chimera not given
T9 sequence: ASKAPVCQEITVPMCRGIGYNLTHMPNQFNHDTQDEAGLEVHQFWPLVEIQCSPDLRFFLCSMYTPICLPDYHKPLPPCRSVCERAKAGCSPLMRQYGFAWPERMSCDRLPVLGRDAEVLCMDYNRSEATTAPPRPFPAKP

FZD8-Fc = target: T10, FZD8-Fc (UniProt Q9H461 28-158, limits assumed); assay: SPR, Frizzled-Fc chimera;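 note: binding targets are Fc fusions carrying an extracellular Frizzled fragment that contains the CRD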
T10 construct: extracellular domain; also called Frizzled-Fc chimera (FZD8); not shown: Fc part
T10 sequence (looked up): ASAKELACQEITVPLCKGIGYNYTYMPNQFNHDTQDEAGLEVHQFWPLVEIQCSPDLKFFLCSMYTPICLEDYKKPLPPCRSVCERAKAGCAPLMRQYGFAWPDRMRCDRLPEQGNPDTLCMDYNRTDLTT

Binder | binding result [1] | binding result [2] | binding result [3] | binding result [4] | binding result [5] | binding result [6] | median fluorescence [7] | median fluorescence [8] | median fluorescence [9] | median fluorescence [10] | median fluorescence [11] | median fluorescence [12] | median fluorescence [13] | kon [16] | kon (FZD8-Fc) | Kd [16] | koff [16] | Kd (FZD8-Fc) | koff (FZD8-Fc) | further results
Fab-2917 (Fab, V domains shown, Fab; also called Fv-2917) VH: EVQLVESGGGLVQPGGSLRLSCAASGFNFSSSSIHWVRQAPGKGLEWVASISSSYGYTYYADSVKGRFTISADTSKNTAYLQMNSLRAEDTAVYYCARAVWYYWWVWGGFDYWGQGTLVTVSS VL: DIQMTQSPSSLSASVGDRVTITCRASQSVSSAVAWYQQKPGKAPKLLIYSASSLYSGVPSRFSGSRSGTDFTLTISSLQPEDFATYYCQQSSYSLITFGQGTKVEIK | no binding | no binding | no binding | no binding | no binding | no binding | 5.57 | 3.46 | 3.49 | 2.89 | 4.14 | 20.5 | 2.76 |  |  |  |  |  |  | 
Fab-2910 (Fab, V domains shown, Fab) VH: EVQLVESGGGLVQPGGSLRLSCAASGFNISYSYMHWVRQAPGKGLEWVASIYSSSSSTSYADSVKGRFTISADTSKNTAYLQMNSLRAEDTAVYYCARGAMDYWGQGTLVTVSS VL: DIQMTQSPSSLSASVGDRVTITCRASQSVSSAVAWYQQKPGKAPKLLIYSASSLYSGVPSRFSGSRSGTDFTLTISSLQPEDFATYYCQQWYGSHLITFGQGTKVEIK | no binding | no binding | no binding | no binding | no binding | no binding | 4.47 | 3.28 | 2.74 | 2.79 | 5 | 10.2 | 2.81 |  |  |  |  |  |  | median fluorescence [14]: 30.5; median fluorescence [15]: 7.91
IgG-2929 (antibody, V domains shown, also called Fv-2929) VH: EVQLVESGGGLVQPGGSLRLSCAASGFNISYYYIHWVRQAPGKGLEWVASIYPSSSSTSYADSVKGRFTISADTSKNTAYLQMNSLRAEDTAVYYCARGAMDYWGQGTLVTVSS VL: DIQMTQSPSSLSASVGDRVTITCRASQSVSSAVAWYQQKPGKAPKLLIYSASSLYSGVPSRFSGSRSGTDFTLTISSLQPEDFATYYCQQWYSSYGLITFGQGTKVEIK |  |  |  |  |  |  |  |  |  |  |  |  |  | 2.77e+06 M⁻¹ s⁻¹ | 3.27e+06 M⁻¹ s⁻¹ |  |  |  |  | 
Fab-2929 (Fab, V domains shown, Fab; also called Fv-2929) VH: EVQLVESGGGLVQPGGSLRLSCAASGFNISYYYIHWVRQAPGKGLEWVASIYPSSSSTSYADSVKGRFTISADTSKNTAYLQMNSLRAEDTAVYYCARGAMDYWGQGTLVTVSS VL: DIQMTQSPSSLSASVGDRVTITCRASQSVSSAVAWYQQKPGKAPKLLIYSASSLYSGVPSRFSGSRSGTDFTLTISSLQPEDFATYYCQQWYSSYGLITFGQGTKVEIK | no binding | no binding | no binding | no binding | no binding | no binding | 4.29 | 3.55 | 3.08 | 2.84 | 3.72 | 13 | 2.64 |  |  |  |  |  |  | median fluorescence [14]: 27.1; median fluorescence [15]: 7.91
IgG-2919 (antibody, V domains shown, human IgG1 heavy chain (hG1), human kappa light chain (hK)) VH: EVQLVESGGGLVQPGGSLRLSCAASGFNISYSYIHWVRQAPGKGLEWVASIYSSSGSTSYADSVKGRFTISADTSKNTAYLQMNSLRAEDTAVYYCARGAIDYWGQGTLVTVSS VL: DIQMTQSPSSLSASVGDRVTITCRASQSVSSAVAWYQQKPGKAPKLLIYSASSLYSGVPSRFSGSRSGTDFTLTISSLQPEDFATYYCQQWYSSGHVLITFGQGTKVEIKR |  |  |  |  |  |  |  |  |  |  |  |  |  | 416000 M⁻¹ s⁻¹ | 533000 M⁻¹ s⁻¹ | 0.194 nM | 8.06e-05 s⁻¹ | 0.0427 nM | 2.28e-05 s⁻¹ | 
IgG-2920 (antibody, V domains shown) VH: EVQLVESGGGLVQPGGSLRLSCAASGFNISYYYIHWVRQAPGKGLEWVASIYPSSGSTSYADSVKGRFTISADTSKNTAYLQMNSLRAEDTAVYYCARGGMDYWGQGTLVTVSS VL: DIQMTQSPSSLSASVGDRVTITCRASQSVSSAVAWYQQKPGKAPKLLIYSASSLYSGVPSRFSGSRSGTDFTLTISSLQPEDFATYYCQQWFAGALITFGQGTKVEIK |  |  |  |  |  |  |  |  |  |  |  |  |  | 3.59e+06 M⁻¹ s⁻¹ | 4.25e+06 M⁻¹ s⁻¹ | 0.0883 nM | 0.000317 s⁻¹ | 0.056 nM | 0.000238 s⁻¹ | 
IgG-2910 (antibody, V domains shown) VH: EVQLVESGGGLVQPGGSLRLSCAASGFNISYSYMHWVRQAPGKGLEWVASIYSSSSSTSYADSVKGRFTISADTSKNTAYLQMNSLRAEDTAVYYCARGAMDYWGQGTLVTVSS VL: DIQMTQSPSSLSASVGDRVTITCRASQSVSSAVAWYQQKPGKAPKLLIYSASSLYSGVPSRFSGSRSGTDFTLTISSLQPEDFATYYCQQWYGSHLITFGQGTKVEIK |  |  |  |  |  |  |  |  |  |  |  |  |  | 1.52e+06 M⁻¹ s⁻¹ | 533000 M⁻¹ s⁻¹ | 0.115 nM | 0.000174 s⁻¹ | 0.0427 nM | 2.28e-05 s⁻¹ | 

Source: US20210253718A1 (MODMAB THERAPEUTICS, published 2021)
